Legend:
[1] = biological target: T1, human Siglec-8 (full-length, on cells) (human, UniProt Q9NYZ4 17-499); test: flow cytometry, CHO cells transfected with human Siglec-8, anti-human Fc-gamma secondary, Median RL1-H
T1 construct: Used for full-length human Siglec-8 transiently expressed on CHO or 293 cells and for native Siglec-8 on primary human eosinophils
Experimental: In additional studies, the parental llama G2 sequence was humanized and multivalent hzSiglec8-G2v14-Fc antibodies were cloned with a reduced effector function xELL human Fc. Binding of bivalent (cx11422; SEQ ID NO: 5 linked to an Fc xELL via linker 2), tetravalent (cx11580; SEQ ID NO: 9 linked to an Fc xELL via linker 2), and hexavalent (cx11579; SEQ ID NO: 10 linked to an Fc xELL via linker 2) hzSiglec8-G2v14-Fc antibodies were assessed by flow cytometry using CHO cells transfected with human Siglec-8. A titration series of the fusion proteins were incubated with the Siglec8-expressing CHO cells (5×10⁴ cells/well) for 30 minutes at 4° C. in FACS Buffer (PBS 1% BSA, 0.1% NaN3 pH 7.4) in 96 well plates. Following one 150 μL wash with FACS buffer, an APC-conjugated anti-human Fcγ specific secondary antibody (Jackson ImmunoResearch) was added, and cells were incubated for 30 minutes at 4° C. Following one additional wash in FACS buffer, bound antibodies were detected via flow cytometry (iQue Intellicyte).
The calculated affinity was similar between the bivalent, tetravalent, and hexavalent hzSiglec8-G2v14-Fc antibodies. The observed Bmax was reduced with increasing valency as anticipated, due the fact that the Fc portion of the antibody was detected in this assay and the ratio of Fc regions to anti-Siglec-8 binding domains is inverse to valency.

[2] = biological target: T1, human Siglec-8 (full-length, on cells); test: flow cytometry on human eosinophils (CD16- CCR3+) from whole blood, anti-human AF647 secondary, MFI
From the text: To determine if increasing the valency of Siglec-8 antibodies could enhance agonist activity, the parental llama B12, D1 and E2 VHH sequences were used to generate tetravalent (Tet-B12 (cx8467; SEQ ID NO:50 linked to an Fc), Tet-D1 (cx8469; SEQ ID NO:56 linked to an Fc), and Tet-E2 (cx8463; SEQ ID NO:62 linked to an Fc)) and hexavalent (Hex-B12 (cx8466; SEQ ID NO:51 linked to an Fc), Hex-D1 (cx8523; SEQ ID NO:57 linked to an Fc), and Hex-E2 (cx8522; SEQ ID NO:165 linked to an Fc)), Siglec8-VHH-Fc antibodies linked to a reduced effector function xELL human Fc region via linker 2. The bivalent (Bi-B12 (cx8982), Bi-D1 (cx8983) and Bi-E2 (cx8984)), tetravalent, and hexavalent Siglec8-VHH-Fc antibodies were assessed by flow cytometry for binding to eosinophils (CD16⁻ CCR3⁺). […] Cells were spun down and then resuspended in titrated test articles starting at 200 nM 1:4 and incubated for 30 minutes at 4° C. before being washed twice and resuspended in secondary mixture (2*; anti-CCR3 FITC, anti-human AF647, PI, anti-CD16 BV605) and incubated for 30 minutes at 4° C., washed twice, and bound antibodies were detected via flow cytometry (Novocyte). […]

[3] = biological target: T1, human Siglec-8 (full-length, on cells); test: flow cytometry, CHO cells transiently transfected with full-length human Siglec-8, A647 anti-human Fc-gamma secondary, Mean RL1-H
Experimental: Binding of the anti-human Siglec-8 VHHs, B12, D1, E2, and G2, as a bivalent VHH-hIgG1-xELL-Fc (VHH of SEQ ID NO: 49, 55, 61, and 1, respectively linked to an Fc xELL via linker 2, these constructs are also designated cx8982, cx8983, cx8984, and cx10382, respectively) was determined by flow cytometry using CHO cells that had been transiently transfected with full-length human Siglec-8. Binding specificity was assessed using untransfected (UT) CHO cells as a control. For the binding assays, 50,000 Siglec-8 CHOs or UT CHOs were seeded in a 96-well plate and a titration of anti-Siglec8-VHH-xELL was added in FACS Buffer (PBS 1% BSA, 0.1% NaN3 pH 7.4) incubating for 30 minutes at 4° C. After washing, the plates were incubated with an A647-conjugated anti-human Fcγ specific secondary antibody (Jackson ImmunoResearch) diluted 1:2000 in FACS buffer for 30 minutes at 4° C. The plates were washed, and binding was determined by flow cytometry quantitating anti-human A647 mean fluorescent intensity using an Intellicyt iQue Plus.

T1 sequence (Q9NYZ4 17-499): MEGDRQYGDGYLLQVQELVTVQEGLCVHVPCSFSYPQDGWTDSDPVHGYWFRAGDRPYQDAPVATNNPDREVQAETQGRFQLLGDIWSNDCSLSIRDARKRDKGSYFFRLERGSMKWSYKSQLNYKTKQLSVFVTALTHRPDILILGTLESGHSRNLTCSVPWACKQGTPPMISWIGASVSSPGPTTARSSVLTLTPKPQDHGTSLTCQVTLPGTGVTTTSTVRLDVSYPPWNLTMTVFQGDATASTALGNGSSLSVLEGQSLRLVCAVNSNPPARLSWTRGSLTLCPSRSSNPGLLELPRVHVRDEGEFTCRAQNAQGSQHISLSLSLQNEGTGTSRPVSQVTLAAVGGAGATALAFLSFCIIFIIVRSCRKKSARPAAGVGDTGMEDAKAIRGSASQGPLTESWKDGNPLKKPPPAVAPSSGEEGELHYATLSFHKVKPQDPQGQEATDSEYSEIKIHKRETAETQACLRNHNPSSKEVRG

B1: tetravalent hzSiglec8-G2v14-Fc antibody, Fc xELL (cx11580) (Fc fusion)
chain: EVQLLESGGGEVQPGGSLRLSCAASGSISIFSMYVVAWYRQAPGKEREWVAFIQRGGTANYAESAKGRFTISRDNAKNTVYLQMSSLRAEDTAVYYCNYINTDNEIGGPWGQGTLVTVKPGGSGGSEVQLLESGGGEVQPGGSLRLSCAASGSISIFSMYVVAWYRQAPGKEREWVAFIQRGGTANYAESAKGRFTISRDNAKNTVYLQMSSLRAEDTAVYYCNYINTDNEIGGPWGQGTLVTVKPGGGGDKTHTCPPCPAPGGPSVFLFPPKPKDTLMISRTPEVTCVVVDVSHEDPEVKFNWYVDGVEVHNAKTKPREEQYNSTYRVVSVLTVLHQDWLNGKEYKCKVSNKALPAPIEKTISKAKGQPREPQVYTLPPSRDELTKNQVSLTCLVKGFYPSDIAVEWESNGQPENNYKTTPPVLDSDGSFFLYSKLTVDKSRWQQGNVFSCSVMHEALHNHYTQKSLSLSPGK
EC50 (read off the curve) [1]: ~0.03 nM

B2: anti-Siglec8-D1-xELL, bivalent VHH-hIgG1-xELL-Fc (cx8983) (Fc fusion)
chain: QVQLVESGGGLVQPGGSLRLSCAASGSIASIHGMGWYRQAPGKERELVAAIAGEGSTYYADSVKGRFTISRDFAKNTLYLQMNNLKAEDTAMYYCANNDERDDYWGQGTQVTVKPGGGGDKTHTCPPCPAPGGPSVFLFPPKPKDTLMISRTPEVTCVVVDVSHEDPEVKFNWYVDGVEVHNAKTKPREEQYNSTYRVVSVLTVLHQDWLNGKEYKCKVSNKALPAPIEKTISKAKGQPREPQVYTLPPSRDELTKNQVSLTCLVKGFYPSDIAVEWESNGQPENNYKTTPPVLDSDGSFFLYSKLTVDKSRWQQGNVFSCSVMHEALHNHYTQKSLSLSPGK
notes: also called Bi-D1
EC50 (read off the curve) [2]: ~0.05 nM

B3: anti-Siglec8-E2-xELL, bivalent VHH-hIgG1-xELL-Fc (cx8984) (Fc fusion)
chain: QVQLVESGGGLVQPGGSLRLSCATSGIIFTSNVINWYRQAPGKQREFVAFITSITSGQSTMYADAVKGRFTVSRDNDKNIGYLQMTSLQPEDTARYVCNVGAYWGQGTQVTVKPGGGGDKTHTCPPCPAPGGPSVFLFPPKPKDTLMISRTPEVTCVVVDVSHEDPEVKFNWYVDGVEVHNAKTKPREEQYNSTYRVVSVLTVLHQDWLNGKEYKCKVSNKALPAPIEKTISKAKGQPREPQVYTLPPSRDELTKNQVSLTCLVKGFYPSDIAVEWESNGQPENNYKTTPPVLDSDGSFFLYSKLTVDKSRWQQGNVFSCSVMHEALHNHYTQKSLSLSPGK
notes: also called Bi-E2
EC50 (read off the curve) [3]: ~0.3 nM

From patent US20230406925A1 (PHYLAXIS BIOSCIENCE, published 2023)
